Assay results reported in US20210388087A1 (Chugai, published 2021).
Where a chain is given by its changes, count along the chain named.

B1: CE115HA000 N53K (antibody, human IgG1, kappa, L234A L235A, N297A, name in Kabat numbering)
heavy: QVQLVESGGGVVQPGRSLRLSCAASGFTFSNAWMHWVRQAPGKGLEWVAQIKAKSKNYATYYAESVKGRFTISRDDSKNSLYLQMNSLKTEDTAVYYCRYVHYGAYYGVDAWGQGTTVTVSSASTKGPSVFPLAPSSKSTSGGTAALGCLVKDYFPEPVTVSWNSGALTSGVHTFPAVLQSSGLYSLSSVVTVPSSSLGTQTYICNVNHKPSNTKVDKKVEPKSCDKTHTCPPCPAPEAAGGPSVFLFPPKPKDTLMISRTPEVTCVVVDVSHEDPEVKFNWYVDGVEVHNAKTKPREEQYASTYRVVSVLTVLHQDWLNGKEYKCKVSNKALPAPIEKTISKAKGQPREPQVYTLPPSRCELTKNQVSLSCAVKGFYPSDIAVEWESNGQPENNYKTTPPVLDSDGSFFLVSKLTVDKSRWQQGNVFSCSVMHEALHNHYTQKSLSLSPDYKDDDDK
chain: EPKSSDKTHTCPPCPAPELLGGPSVFLFPPKPKDTLMISRTPEVTCVVVDVSHEDPEVKFNWYVDGVEVHNAKTKPREEQYNSTYRVVSVLTVLHQDWLNGKEYKCKVSNKALPAPIEKTISKAKGQPREPQVCTLPPSRDELTKNQVSLWCLVKGFYPSDIAVEWESNGQPENNYKTTPPVLDSDGSFFLYSKLTVDKSRWQQGNVFSCSVMHEALHNRYTQKSLSLSP
light: DIVMTQSPLSLPVTPGEPASISCRSSQSLVHSNRNTYLHWYQQKPGQAPRLLIYKVSNRFSGVPDRFSGSGSGTDFTLKISRVEAEDVGVYYCGQGTQVPYTFGQGTKLEIKRTVAAPSVFIFPPSDEQLKSGTASVVCLLNNFYPREAKVQWKVDNALQSGNSQESVTEQDSKDSTYSLSSTLTLSKADYEKHKVYACEVTHQGLSSPVTKSFNRGEC
notes: one-arm antibody
B2: CE115HA000 N54K (antibody, human IgG1, kappa, L234A L235A, N297A, name in Kabat numbering)
heavy: B1 heavy with K56N, N57K
chain: B1 chain
light: B1 light
notes: one-arm antibody
B3: CE115HA000 N53W (antibody, human IgG1, kappa, L234A L235A, N297A, name in Kabat numbering)
heavy: B1 heavy with K56W
chain: B1 chain
light: B1 light
notes: one-arm antibody
B4: CE115HA000 N54D (antibody, human IgG1, kappa, L234A L235A, N297A, name in Kabat numbering)
heavy: B1 heavy with K56N, N57D
chain: B1 chain
light: B1 light
notes: one-arm antibody
B5: CE115HA000 N53S (antibody, human IgG1, kappa, L234A L235A, N297A, name in Kabat numbering)
heavy: B1 heavy with K56S
chain: B1 chain
light: B1 light
notes: one-arm antibody
B6: CE115HA000 N53Y (antibody, human IgG1, kappa, L234A L235A, N297A, name in Kabat numbering)
heavy: B1 heavy with K56Y
chain: B1 chain
light: B1 light
notes: one-arm antibody
B7: CE115HA000 N54F (antibody, human IgG1, kappa, L234A L235A, N297A, name in Kabat numbering)
heavy: B1 heavy with K56N, N57F
chain: B1 chain
light: B1 light
notes: one-arm antibody
B8: CE115HA000 N54G (antibody, human IgG1, kappa, L234A L235A, N297A, name in Kabat numbering)
heavy: B1 heavy with K56N, N57G
chain: B1 chain
light: B1 light
notes: one-arm antibody
B9: CE115HA000 N53Q (antibody, human IgG1, kappa, L234A L235A, N297A, name in Kabat numbering)
heavy: B1 heavy with K56Q
chain: B1 chain
light: B1 light
notes: one-arm antibody
B10: CE115HA000 N54A (antibody, human IgG1, kappa, L234A L235A, N297A, name in Kabat numbering)
heavy: B1 heavy with K56N, N57A
chain: B1 chain
light: B1 light
notes: one-arm antibody

Each binder was assayed against T1, CD3 epsilon homodimer protein (UniProt P07766 23-126) (assay: SPR, CD3 epsilon homodimer on chip, one-arm antibody as analyte;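 further: surface plasmon resonance at 25 °C with CD3 epsilon homodimer amine-coupled to a CM4 sensor chip, antibody injected as analyte, HBS-EP+ as running buffer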).
T1 construct: also called CD3 (CD3 epsilon)
T1 sequence (P07766 23-126): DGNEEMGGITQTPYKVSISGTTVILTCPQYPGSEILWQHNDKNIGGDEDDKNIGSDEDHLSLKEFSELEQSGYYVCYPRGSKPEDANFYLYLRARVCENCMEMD
Method: An appropriate amount of CD3 epsilon homodimer protein was immobilized onto Sensor chip CM4 (GE Healthcare Japan Corp.) by the amine coupling method. Then, the antibody having an appropriate concentration was injected thereto as an analyte and allowed to interact with the CD3 epsilon homodimer protein on the sensor chip. Then, the sensor chip was regenerated by the injection of 10 mmol/L glycine-HCl (pH 1.5). The assay was conducted at 25 degrees C., and HBS-EP+(GE Healthcare Japan Corp.) was used as a running buffer. […] Each parameter was calculated using Biacore T200 Evaluation Software (GE Healthcare Japan Corp.).

Which “KD ratio (KD of CE115HA000/KD of altered form)” value (“KD ratio” for short) does the source give for B1 here?
Its value is 0.79.

How did the “KD ratio” value turn out when B2 was run?
Its value is 0.82.

How did the “KD ratio” value turn out when B3 was run?
The value was 0.69.

Which “KD ratio” value does the source give for B4 here?
Its value is 0.59.

For B5, which “KD ratio” value is on record?
The value was 0.59.

For B6, which “KD ratio” value is on record?
The value was 0.94.

With B7 as the binder, how does the “KD ratio” value read?
The value was 0.97.

For B8, which “KD ratio” value is on record?
Its value is 0.84.

Which “KD ratio” value does the source give for B9 here?
Its value is 1.05.

B10 was tested. Which “KD ratio” value did it give?
Its value is 0.58.
